{"source": "the supplement of paper PMC10065799", "about": "“High-throughput profiling of sequence recognition by tyrosine kinases and SH2 domains using bacterial peptide display” (eLife, 2023);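 note: 11-residue human phosphosite peptides and single-mutation variants displayed on the E. coli surface, counted by deep sequencing, each peptide's frequency after selection divided by its frequency in the unselected input library; frequency after pTyr selection over input frequency; kinase dosed for 20-30% of maximal phosphorylation in three min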", "data": [{"system": "AncSZ", "test": "phosphorylation enrichment, bacterial display (enrichment ratio); higher = better substrate or ligand; peptides without Tyr show the background", "values": [{"sequence": "PSDPSYEDMRE [BMPR1A_Y467]", "phosphorylation enrichment": 2.49}, {"sequence": "FSLIHYASIVD [MYH7_Y582_G584S]", "phosphorylation enrichment": 1.07}, {"sequence": "CNRADYSKLAS [GNE_Y22_P27S]", "phosphorylation enrichment": 1.04}, {"sequence": "PIFEGYGLPHA [ACTA1_Y171_A172G_YF]", "phosphorylation enrichment": 0.806}, {"sequence": "FKDFFYCWNTF [AICDA_Y146_YF]", "phosphorylation enrichment": 1.87}, {"sequence": "PLGPLYASSNT [INSR_Y992_P997T]", "phosphorylation enrichment": 1.87}, {"sequence": "TEAGNYKLCFD [TMED1_Y103_D102N]", "phosphorylation enrichment": 1.12}, {"sequence": "KKHIPYREHKS [CSNK1G1_Y205]", "phosphorylation enrichment": 1.76}, {"sequence": "RSSNTYTLTDV [ALCAM_Y298]", "phosphorylation enrichment": 0.766}, {"sequence": "EEVKAYLDFRE [CHAC2_Y78]", "phosphorylation enrichment": 1.2}, {"sequence": "DTVRIYDDDFF [UBA1_Y560_E557V]", "phosphorylation enrichment": 1.28}, {"sequence": "IGEGTYRQVFK [CDK13_Y716_G717R_YF]", "phosphorylation enrichment": 0.693}, {"sequence": "SYCYRYRCAAR [SUMF1_Y344]", "phosphorylation enrichment": 0.789}, {"sequence": "MASTSYDFCRV [BST2_Y6_YF]", "phosphorylation enrichment": 0.944}, {"sequence": "QMIETYFDFRV [NSMF_Y506_L511V]", "phosphorylation enrichment": 1.77}, {"sequence": "RQQEDYLLYKQ [RARRES1_Y159]", "phosphorylation enrichment": 1.32}, {"sequence": "AGLEDYDRLRP [RAC3_Y64_Q61L]", "phosphorylation enrichment": 1.13}, {"sequence": "AELVRYYMEHH [PTPN11_Y80_Q79R]", "phosphorylation enrichment": 0.856}, {"sequence": "TCRPPYFHRNC [HGD_Y333_F329C_YF]", "phosphorylation enrichment": 1.05}, {"sequence": "SVTCTYSPARN [TP53_Y126_L130R]", "phosphorylation enrichment": 1.22}, {"sequence": "FQEKGYNKEPR [CHRND_Y38_L42P]", "phosphorylation enrichment": 0.895}, {"sequence": "EDGCIYPATIA [SMN1_Y109]", "phosphorylation enrichment": 1.07}, {"sequence": "WSISFYPQVIM [CTNS_Y143]", "phosphorylation enrichment": 1.21}, {"sequence": "WQQQSYLYSGI [CTNNB1_Y30_D32Y]", "phosphorylation enrichment": 1.16}, {"sequence": "HESEIYCKVCY [CSRP3_Y57]", "phosphorylation enrichment": 1.41}, {"sequence": "LKTNWYNNGKD [DNMT3B_Y404_C403W]", "phosphorylation enrichment": 1.54}, {"sequence": "KPVDTYFDSTR [DYNC2H1_Y2230_M2227V_YF]", "phosphorylation enrichment": 0.925}, {"sequence": "VFLGAYDHFLP [SLC22A5_Y486_R488H_YF]", "phosphorylation enrichment": 1.36}, {"sequence": "RLPSGYGLAYR [DLK1_Y262]", "phosphorylation enrichment": 0.627}]}, {"system": "c-Abl (mouse)", "test": "phosphorylation enrichment, bacterial display (enrichment ratio); higher = better substrate or ligand; peptides without Tyr show the background", "values": [{"sequence": "PSDPSYEDMRE [BMPR1A_Y467]", "phosphorylation enrichment": 0.831}, {"sequence": "FSLIHYASIVD [MYH7_Y582_G584S]", "phosphorylation enrichment": 0.847}, {"sequence": "CNRADYSKLAS [GNE_Y22_P27S]", "phosphorylation enrichment": 0.453}, {"sequence": "PIFEGYGLPHA [ACTA1_Y171_A172G_YF]", "phosphorylation enrichment": 0.872}, {"sequence": "FKDFFYCWNTF [AICDA_Y146_YF]", "phosphorylation enrichment": 1.19}, {"sequence": "PLGPLYASSNT [INSR_Y992_P997T]", "phosphorylation enrichment": 1.51}, {"sequence": "TEAGNYKLCFD [TMED1_Y103_D102N]", "phosphorylation enrichment": 0.785}, {"sequence": "KKHIPYREHKS [CSNK1G1_Y205]", "phosphorylation enrichment": 3.25}, {"sequence": "RSSNTYTLTDV [ALCAM_Y298]", "phosphorylation enrichment": 0.669}, {"sequence": "EEVKAYLDFRE [CHAC2_Y78]", "phosphorylation enrichment": 0.867}, {"sequence": "DTVRIYDDDFF [UBA1_Y560_E557V]", "phosphorylation enrichment": 0.726}, {"sequence": "IGEGTYRQVFK [CDK13_Y716_G717R_YF]", "phosphorylation enrichment": 0.558}, {"sequence": "SYCYRYRCAAR [SUMF1_Y344]", "phosphorylation enrichment": 0.776}, {"sequence": "MASTSYDFCRV [BST2_Y6_YF]", "phosphorylation enrichment": 0.622}, {"sequence": "QMIETYFDFRV [NSMF_Y506_L511V]", "phosphorylation enrichment": 0.887}, {"sequence": "RQQEDYLLYKQ [RARRES1_Y159]", "phosphorylation enrichment": 1.39}, {"sequence": "AGLEDYDRLRP [RAC3_Y64_Q61L]", "phosphorylation enrichment": 0.657}, {"sequence": "AELVRYYMEHH [PTPN11_Y80_Q79R]", "phosphorylation enrichment": 0.421}, {"sequence": "TCRPPYFHRNC [HGD_Y333_F329C_YF]", "phosphorylation enrichment": 0.878}, {"sequence": "SVTCTYSPARN [TP53_Y126_L130R]", "phosphorylation enrichment": 0.84}, {"sequence": "FQEKGYNKEPR [CHRND_Y38_L42P]", "phosphorylation enrichment": 0.912}, {"sequence": "EDGCIYPATIA [SMN1_Y109]", "phosphorylation enrichment": 0.87}, {"sequence": "WSISFYPQVIM [CTNS_Y143]", "phosphorylation enrichment": 0.623}, {"sequence": "WQQQSYLYSGI [CTNNB1_Y30_D32Y]", "phosphorylation enrichment": 0.851}, {"sequence": "HESEIYCKVCY [CSRP3_Y57]", "phosphorylation enrichment": 1.01}, {"sequence": "LKTNWYNNGKD [DNMT3B_Y404_C403W]", "phosphorylation enrichment": 1.62}, {"sequence": "KPVDTYFDSTR [DYNC2H1_Y2230_M2227V_YF]", "phosphorylation enrichment": 0.611}, {"sequence": "VFLGAYDHFLP [SLC22A5_Y486_R488H_YF]", "phosphorylation enrichment": 1.06}, {"sequence": "RLPSGYGLAYR [DLK1_Y262]", "phosphorylation enrichment": 0.414}]}, {"system": "Fer (mouse)", "test": "phosphorylation enrichment, bacterial display (enrichment ratio); higher = better substrate or ligand; peptides without Tyr show the background", "values": [{"sequence": "PSDPSYEDMRE [BMPR1A_Y467]", "phosphorylation enrichment": 1.26}, {"sequence": "FSLIHYASIVD [MYH7_Y582_G584S]", "phosphorylation enrichment": 0.714}, {"sequence": "CNRADYSKLAS [GNE_Y22_P27S]", "phosphorylation enrichment": 0.398}, {"sequence": "PIFEGYGLPHA [ACTA1_Y171_A172G_YF]", "phosphorylation enrichment": 0.744}, {"sequence": "FKDFFYCWNTF [AICDA_Y146_YF]", "phosphorylation enrichment": 1.41}, {"sequence": "PLGPLYASSNT [INSR_Y992_P997T]", "phosphorylation enrichment": 1.1}, {"sequence": "TEAGNYKLCFD [TMED1_Y103_D102N]", "phosphorylation enrichment": 0.492}, {"sequence": "KKHIPYREHKS [CSNK1G1_Y205]", "phosphorylation enrichment": 1.81}, {"sequence": "RSSNTYTLTDV [ALCAM_Y298]", "phosphorylation enrichment": 1.04}, {"sequence": "EEVKAYLDFRE [CHAC2_Y78]", "phosphorylation enrichment": 0.651}, {"sequence": "DTVRIYDDDFF [UBA1_Y560_E557V]", "phosphorylation enrichment": 0.619}, {"sequence": "IGEGTYRQVFK [CDK13_Y716_G717R_YF]", "phosphorylation enrichment": 0.474}, {"sequence": "SYCYRYRCAAR [SUMF1_Y344]", "phosphorylation enrichment": 0.37}, {"sequence": "MASTSYDFCRV [BST2_Y6_YF]", "phosphorylation enrichment": 2.25}, {"sequence": "QMIETYFDFRV [NSMF_Y506_L511V]", "phosphorylation enrichment": 0.679}, {"sequence": "RQQEDYLLYKQ [RARRES1_Y159]", "phosphorylation enrichment": 1.1}, {"sequence": "AGLEDYDRLRP [RAC3_Y64_Q61L]", "phosphorylation enrichment": 0.62}, {"sequence": "AELVRYYMEHH [PTPN11_Y80_Q79R]", "phosphorylation enrichment": 0.457}, {"sequence": "TCRPPYFHRNC [HGD_Y333_F329C_YF]", "phosphorylation enrichment": 0.334}, {"sequence": "SVTCTYSPARN [TP53_Y126_L130R]", "phosphorylation enrichment": 0.554}, {"sequence": "FQEKGYNKEPR [CHRND_Y38_L42P]", "phosphorylation enrichment": 0.571}, {"sequence": "EDGCIYPATIA [SMN1_Y109]", "phosphorylation enrichment": 0.513}, {"sequence": "WSISFYPQVIM [CTNS_Y143]", "phosphorylation enrichment": 0.471}, {"sequence": "WQQQSYLYSGI [CTNNB1_Y30_D32Y]", "phosphorylation enrichment": 5.61}, {"sequence": "HESEIYCKVCY [CSRP3_Y57]", "phosphorylation enrichment": 2.51}, {"sequence": "LKTNWYNNGKD [DNMT3B_Y404_C403W]", "phosphorylation enrichment": 0.644}, {"sequence": "KPVDTYFDSTR [DYNC2H1_Y2230_M2227V_YF]", "phosphorylation enrichment": 0.472}, {"sequence": "VFLGAYDHFLP [SLC22A5_Y486_R488H_YF]", "phosphorylation enrichment": 4.81}, {"sequence": "RLPSGYGLAYR [DLK1_Y262]", "phosphorylation enrichment": 0.418}]}, {"system": "c-Src", "test": "phosphorylation enrichment, bacterial display (enrichment ratio); higher = better substrate or ligand; peptides without Tyr show the background", "values": [{"sequence": "PSDPSYEDMRE [BMPR1A_Y467]", "phosphorylation enrichment": 0.534}, {"sequence": "FSLIHYASIVD [MYH7_Y582_G584S]", "phosphorylation enrichment": 0.442}, {"sequence": "CNRADYSKLAS [GNE_Y22_P27S]", "phosphorylation enrichment": 0.369}, {"sequence": "PIFEGYGLPHA [ACTA1_Y171_A172G_YF]", "phosphorylation enrichment": 0.547}, {"sequence": "FKDFFYCWNTF [AICDA_Y146_YF]", "phosphorylation enrichment": 1.25}, {"sequence": "PLGPLYASSNT [INSR_Y992_P997T]", "phosphorylation enrichment": 1.22}, {"sequence": "TEAGNYKLCFD [TMED1_Y103_D102N]", "phosphorylation enrichment": 0.424}, {"sequence": "KKHIPYREHKS [CSNK1G1_Y205]", "phosphorylation enrichment": 1.46}, {"sequence": "RSSNTYTLTDV [ALCAM_Y298]", "phosphorylation enrichment": 1.58}, {"sequence": "EEVKAYLDFRE [CHAC2_Y78]", "phosphorylation enrichment": 0.59}, {"sequence": "DTVRIYDDDFF [UBA1_Y560_E557V]", "phosphorylation enrichment": 0.522}, {"sequence": "IGEGTYRQVFK [CDK13_Y716_G717R_YF]", "phosphorylation enrichment": 0.386}, {"sequence": "SYCYRYRCAAR [SUMF1_Y344]", "phosphorylation enrichment": 0.54}, {"sequence": "MASTSYDFCRV [BST2_Y6_YF]", "phosphorylation enrichment": 0.525}, {"sequence": "QMIETYFDFRV [NSMF_Y506_L511V]", "phosphorylation enrichment": 4.53}, {"sequence": "RQQEDYLLYKQ [RARRES1_Y159]", "phosphorylation enrichment": 0.941}, {"sequence": "AGLEDYDRLRP [RAC3_Y64_Q61L]", "phosphorylation enrichment": 0.485}, {"sequence": "AELVRYYMEHH [PTPN11_Y80_Q79R]", "phosphorylation enrichment": 0.486}, {"sequence": "TCRPPYFHRNC [HGD_Y333_F329C_YF]", "phosphorylation enrichment": 0.314}, {"sequence": "SVTCTYSPARN [TP53_Y126_L130R]", "phosphorylation enrichment": 0.555}, {"sequence": "FQEKGYNKEPR [CHRND_Y38_L42P]", "phosphorylation enrichment": 0.57}, {"sequence": "EDGCIYPATIA [SMN1_Y109]", "phosphorylation enrichment": 0.539}, {"sequence": "WSISFYPQVIM [CTNS_Y143]", "phosphorylation enrichment": 0.35}, {"sequence": "WQQQSYLYSGI [CTNNB1_Y30_D32Y]", "phosphorylation enrichment": 5.93}, {"sequence": "HESEIYCKVCY [CSRP3_Y57]", "phosphorylation enrichment": 7.01}, {"sequence": "LKTNWYNNGKD [DNMT3B_Y404_C403W]", "phosphorylation enrichment": 0.838}, {"sequence": "KPVDTYFDSTR [DYNC2H1_Y2230_M2227V_YF]", "phosphorylation enrichment": 0.43}, {"sequence": "VFLGAYDHFLP [SLC22A5_Y486_R488H_YF]", "phosphorylation enrichment": 3.29}, {"sequence": "RLPSGYGLAYR [DLK1_Y262]", "phosphorylation enrichment": 0.39}]}]}
